These results are taken from article PMC8646042.

In the assay the target is T1, endogenous IRF3 (human (endogenous in 293T)), Q14653.
T1 chain: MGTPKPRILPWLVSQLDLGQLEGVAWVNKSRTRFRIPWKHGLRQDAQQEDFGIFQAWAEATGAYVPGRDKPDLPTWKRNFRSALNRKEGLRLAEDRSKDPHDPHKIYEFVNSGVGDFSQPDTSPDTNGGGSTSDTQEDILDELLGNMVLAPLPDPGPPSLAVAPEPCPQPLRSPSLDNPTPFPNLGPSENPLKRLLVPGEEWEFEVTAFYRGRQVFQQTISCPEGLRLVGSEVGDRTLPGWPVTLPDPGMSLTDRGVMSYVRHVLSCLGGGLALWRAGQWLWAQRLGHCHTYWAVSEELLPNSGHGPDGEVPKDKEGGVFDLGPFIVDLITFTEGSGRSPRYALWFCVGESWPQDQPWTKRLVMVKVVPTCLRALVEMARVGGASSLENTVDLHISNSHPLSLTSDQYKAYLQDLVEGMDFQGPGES
The experiment in a line: native gel or EMSA; Native PAGE of lysates of 293T or MCF7 cells and western blot with anti-IRF3; SeV infection for 12 h or MAVS transfection; N4BP3 overexpressed, knocked down or knocked out. The note with it: remark: other sources report otherwise.

B1: endogenous IRF3, Q14653 1-427 (natural protein)
chain: T1 chain
On to B1, for which the stoichiometry N turned out to be 2.
